Measured values reported in article PMC2100151.

Molecular target: Human ASK1 catalytic (kinase) domain, T813A mutant (human) (UniProt Q99683)
Assay: AUC; sedimentation velocity; 13 μM protein in 10 mM HEPES pH 7.4, 120 mM NaCl, 0.25% glycerol, 4°C, 40,000 rpm; c(s) and c(M) distributions (SEDFIT)

stoichiometry N: 2
Substance: Human ASK1 catalytic (kinase) domain, T813A mutant (from UniProt Q99683 659-951) (domain or fragment)
